Earlier results on 1 substance are cited in article PMC8268101.

This series addresses C1q (Homo sapiens) (UniProt P02745). In words: SPR. A general note: SPR reads the build-up and loss of mass on a sensor chip optically.
UniProt P02745, sequence (P02745 23-245, chain 1 of 3): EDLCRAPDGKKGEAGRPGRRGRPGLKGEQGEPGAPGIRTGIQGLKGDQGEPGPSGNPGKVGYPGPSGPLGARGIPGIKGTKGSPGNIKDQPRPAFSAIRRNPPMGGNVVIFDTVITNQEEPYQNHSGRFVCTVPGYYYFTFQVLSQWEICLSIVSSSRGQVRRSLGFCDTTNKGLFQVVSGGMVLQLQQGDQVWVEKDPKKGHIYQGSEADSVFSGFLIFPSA
UniProt P02745, sequence (P02746 28-253, chain 2 of 3, further chain): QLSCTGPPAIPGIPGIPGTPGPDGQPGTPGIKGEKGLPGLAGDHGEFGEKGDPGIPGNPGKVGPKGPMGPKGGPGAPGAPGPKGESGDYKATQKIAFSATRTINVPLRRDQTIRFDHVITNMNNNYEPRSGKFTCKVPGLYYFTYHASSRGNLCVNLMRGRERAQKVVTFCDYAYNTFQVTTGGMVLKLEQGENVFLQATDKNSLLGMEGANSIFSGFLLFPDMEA
UniProt P02745, sequence (P02747 29-245, chain 3 of 3, further chain): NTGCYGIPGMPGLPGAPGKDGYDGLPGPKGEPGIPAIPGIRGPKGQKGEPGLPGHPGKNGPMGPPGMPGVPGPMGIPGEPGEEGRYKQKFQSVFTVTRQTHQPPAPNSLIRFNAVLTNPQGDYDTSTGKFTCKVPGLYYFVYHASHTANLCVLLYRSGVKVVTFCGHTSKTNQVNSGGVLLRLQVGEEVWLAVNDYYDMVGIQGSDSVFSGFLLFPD

One may read the Kd as the equilibrium constant for the complex coming apart. For RAGE (from UniProt Q15109), the Kd is 5.6 µM.
